We go through 4 molecules from patent publication US20040014707A1 (published 2004).

Assay [1] has as its target Bacillus anthracis protective antigen PA83 (Bacillus anthracis, UniProt P13423 30-764). The assay can be described thus: SPR (BIACORE), PA83 on CM5 chip, 4 concentrations of monomeric scFv.
In another assay the target is recombinant PA32 protein (Bacillus anthracis). The assay can be described thus: SPR, PA32 coupled to CM5 chip, single scFv concentration. A general note: Surface plasmon resonance follows binding to a sensor surface in real time, without labels.
For a further assay, the target named is EGFP-PA32 fusion protein (Bacillus anthracis). The assay can be described thus: SPR (BIAcore), […], single concentration.

B1: scFv#1 (scFv)
scFv: QVNLRESGGGLVQPGGSLRLSCAASGFTFSSYAMSWVRQAPGKGLEWVSAISSNGGSTYYADSVKGRFTISRDNSKNTLYLQMSSLRAEDTALYYCARERGAAAASDYWGPGTLVTVSSGGGGSSGGGSGGGGSQSVLTQPPSASGTPGQRVTISCSGSSSNIGSNSVNWYQQLPGTAPKLLIYSNSNRPSGVPDRFSGSKSGTSASLAISGLRSEDEADYYCAAWDDSLSGRVFGGGTKLTVLGAAAEQKLISEEDLNGAAHHHHHH
Take B1: the Kd (usually the constant that tells how readily two partners part at equilibrium) in assay [1] is 190 nM.

B2: scFv#12 (scFv)
scFv: QVQLVESGGGVVQPGRSLRLSCAASGFTFNNHAMEWVRQAPGKGLEWVSGINWDGGSTGYADSVKGRFAVSRDNAKNSLYLQINSLRDEDTAVYYCARANWGRIDYWGQGTLVTVSSGGGGSGGGGSGGGGSSELTQDPAVSVALGQTVRITCQGDSLRRYYASWYQQKPGQAPVLVIYGKNNRPSGIPDRFSGSSSGNTASLTITGAQAEDEADYYCHSRDSSGTHLRVFGGGTKLTVLGAAAEQKLISEEDLNGAAHHHHH
Consider B2, for which the binding result in the assay with recombinant PA32 protein and with EGFP-PA32 fusion protein was “no binding” throughout.

B3: scFv#4 (scFv)
scFv: QVQLVESGGGLVQPGGSLRLSCSASGFTFSSYAMHWVRQAPGKGLEYVSAISSNGGSTYYADSVKGRFTISRDNSKNTLYLQMSSLRAEDTAVYYCVKDLHVGRLQLGVFDYWGQGTLVTVSSGGGGSGGGGSGGGGSSELTQDPAVSVALGQTVRITCQGDSLRSYYASWYQQKPGQAPVLVIYGKNNRPSGIPDRFSGSSSGNTASLTITGAQAEDEADYYCNSRDSSSTHRGVFGGGTKLTVLGAAAEQKLISEEDLNGAAHHHHHH
Molecule B3 had a Kd in assay [1] of 310 nM. That is a sub-micromolar value.

B4: scFv#24 (scFv)
scFv: QVQLVESGGGLVQPGGSLRLSCSASGFTFSSYAMHWVRQAPGKGLEYVSAISSNGGSTYYADSVKGRFTISRDNSKNTLYLQMSSLRAEDTAVYYCVKDLHVGRLQLGVFDYWGQGTLVTVSSGGGGSGGGGSGGGGSSELTQDPAVSVAVGQTVKITCQGDSLRSYYATWYQQKPGQAPVLVIYGKNSRPSGIPDRFSGSSSGTTASFTITGAQAEDEADYYCNSRDSTNNQLFGGGTKLTVLGAAAEQKLISEEDLNGAAHHHHH
In turn, B4 returned a dissociation constant (Kd) in assay [1] of 430 nM.
